Our source for the IC50 values is patent publication CN111303278A (JANSSEN VACCINES & PREVENTION BV, dated 2020).

The target of the assay is Sym-1789. The experiment in a line: ELISA, biotinylated peptide on avidin plate, mAb titrated.

B1: CB030.1 (antibody, V domains shown)
VH: QVQLVQSGAEMKRPGSSVKVSCKASGGTFSTFAINWVRQAPGQGFEWMGGVIPGFDSANYAQKFQGRLTMSADESTSTVYMELSSLRSDDTAVYYCAGNSGYCSGDSCAPNWGPGTLVTVSS
VL: DIVMTQSPLSLPVTPGEPASISCRSSQSLVHSNGYSYLDWYLQKPGQSPQLLIYLGSNRPSGVPDRFSGSGSGTDFTLKISRVEAEDVGVYFCMQNLQTPTFGGGTKVEIK
As for B1, the IC50 was about 0.02 mg/L.

B2: CB017.5L (antibody, V domains shown)
VH: QVQLVESGGGVVQPGRSLRLSCSASGFTFSVYAMHWVRQAPGQGLEWVAIIWYDGSNKYYADSVKGRFTISRDNSKETLYLQMNSLRVEDTAVYYCARDPIVGHTRDGLDVWGQGTTVTVSS
VL: SYELTQPPSVSVSPGQTARVTCSGDAMAEQYTYWYQQKPGQAPVLIIFKDTERPSGIPERFSGSSSGTTVTLTISGVQTEDEADYYCQSTDSSGTSWVFGGGTKLTVL
The molecule B2 displayed an IC50 of about 0.02 mg/L.

In general, IC50 refers to the midpoint of a concentration-inhibition curve.
